In series [1] the test system is RcsB-6His (Dickeya dadantii 3937 (EC3937)?). Nature of the series: EMSA. The following applies: 10 mM Tris pH 7.5, 50 mM NaCl, 0.5 mM DTT, 1 mM MgCl2, 2.5% glycerol; 20 min at room temperature; 50 ng DNA in 20 ul; 6% acrylamide-TBE gel. A general note: In EMSA bound probe runs differently from free probe, usually more slowly.
In series [2] the test system is OmpR-6His (Dickeya dadantii 3937 (EC3937)). Nature of the series: EMSA. Conditions: 10 mM Tris pH 7.5, 50 mM NaCl, 0.5 mM DTT, 1 mM MgCl2, 2.5% glycerol; 20 min at room temperature; 50 ng DNA in 20 ul; 6% acrylamide-TBE gel.

As to opgC promoter region, the binding in series [1] is 300 ng; in series [2] it was 500 ng.

Values taken from paper PMC4726272.
